For this experiment, the target named is HLA-A*03:01 (recombinant soluble heavy chain with β2-microglobulin) (human). Description: fluorescence polarisation.

No end group written: not given here. *: point of attachment. 5FAM = O=C1OC2(c3ccc(O)cc3Oc3cc(O)ccc32)c2ccc(C(=O)*)cc21

Regarding AHHGK(5FAM)WTTK [pWT peptide fluorescently labeled at P5 (5-carboxyfluorescein-modified lysine in place of P5 Gly)], the t1/2 of dissociation worked out at 4.68 min.
